Assay results: paper doi:10.1101/2023.09.29.560207 (bioRxiv, 2023)
One block for each molecule: values may come before it.

B2: His-MBP-RGNEF^1–275 (domain or fragment, human, UniProt Q8N1W1 1-275, looked up)
chain: MELSCSEAPLYGQMMIYAKFDKNVYLPEDAEFYFTYDGSHQRHVMIAERIEDNVLQSSVPGHGLQETVTVSVCLCSEGYSPVTMGSGSVTYVDNMACRLARLLVTQANRLTACSHQTLLTPFALTAGALPALDEELVLALTHLELPLEWTVLGSSSLEVSSHRESLLHLAMRWGLAKLSQFFLCLPGGVQALALPNEEGATPLDLALREGHSKLVEDVTNFQGRWSPSFSRVQLSEEASLHYIHSSETLTLTLNHTAEHLLEADIKLFRKYFWDR

Legend:
His-MBP-RGNEF^1–275 = target: B2; test: SPR
His-GST-TDP-43^wt = His-GST-TDP-43^wt (human, UniProt Q13148 1-414); test: SPR
Chain of His-GST-TDP-43^wt (Q13148 whole entry): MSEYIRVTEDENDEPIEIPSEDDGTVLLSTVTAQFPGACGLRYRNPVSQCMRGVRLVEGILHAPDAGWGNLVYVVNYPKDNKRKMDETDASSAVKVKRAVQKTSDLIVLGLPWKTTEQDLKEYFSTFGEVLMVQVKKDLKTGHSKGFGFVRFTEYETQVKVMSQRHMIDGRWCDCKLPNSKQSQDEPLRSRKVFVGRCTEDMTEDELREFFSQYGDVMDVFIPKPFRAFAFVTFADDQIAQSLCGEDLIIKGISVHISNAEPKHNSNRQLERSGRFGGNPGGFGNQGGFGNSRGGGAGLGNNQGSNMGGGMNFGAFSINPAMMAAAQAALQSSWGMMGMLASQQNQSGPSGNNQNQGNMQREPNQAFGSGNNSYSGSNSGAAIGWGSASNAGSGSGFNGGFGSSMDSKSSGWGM

Kd (His-MBP-RGNEF^1–275): 4110 nM
Molecule: His-TDP-43^1–296 (from UniProt Q13148 1-261) (domain or fragment)

binding result (His-MBP-RGNEF^1–275): binds
B1: His-RRM-1 (domain or fragment, human, UniProt Q13148 101-191, looked up)
chain: QKTSDLIVLGLPWKTTEQDLKEYFSTFGEVLMVQVKKDLKTGHSKGFGFVRFTEYETQVKVMSQRHMIDGRWCDCKLPNSKQSQDEPLRSR

Molecule: B2
Kd (His-GST-TDP-43^wt): 1780 nM
